We go through two molecules from US20150098945A1 (Daiichi Sankyo, published 2015).

Assay [1] concerns the target T1, N-terminal FLAG-tagged human ROBO4 extracellular region/domain deletion variant hROBO4-341 (human, UniProt Q8WZ75 341-1007).
T1 construct: On transfected HEK293 cells; also called pCI-FLAG-hROBO4-341; pCI-hROBO4-341
T1 sequence: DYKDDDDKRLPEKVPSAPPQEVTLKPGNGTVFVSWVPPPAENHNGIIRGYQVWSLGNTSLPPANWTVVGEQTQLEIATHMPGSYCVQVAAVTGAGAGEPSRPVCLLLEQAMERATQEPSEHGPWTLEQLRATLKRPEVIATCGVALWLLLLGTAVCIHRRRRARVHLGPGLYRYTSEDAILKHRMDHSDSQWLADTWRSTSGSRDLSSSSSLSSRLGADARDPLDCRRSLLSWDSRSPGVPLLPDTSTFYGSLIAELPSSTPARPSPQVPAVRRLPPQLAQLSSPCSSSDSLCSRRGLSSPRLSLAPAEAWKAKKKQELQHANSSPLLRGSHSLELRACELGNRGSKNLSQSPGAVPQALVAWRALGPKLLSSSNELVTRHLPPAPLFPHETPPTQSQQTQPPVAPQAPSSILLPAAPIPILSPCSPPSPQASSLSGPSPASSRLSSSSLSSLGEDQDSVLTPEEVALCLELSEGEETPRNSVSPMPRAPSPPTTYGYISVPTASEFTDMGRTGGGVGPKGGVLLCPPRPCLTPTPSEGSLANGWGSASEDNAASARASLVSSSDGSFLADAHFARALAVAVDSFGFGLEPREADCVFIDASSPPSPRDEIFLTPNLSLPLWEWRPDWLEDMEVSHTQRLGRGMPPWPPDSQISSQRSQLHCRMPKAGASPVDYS
Kind of assay: flow cytometry, HEK293 cells transfected with pCI-FLAG-hROBO4-341, anti-mouse IgG FITC; control histogram IgG (Mouse IgG2a). On the procedure: HEK293 cells were inoculated at a concentration of 1.5×10⁶ cells/dish to a 60-mm dish (manufactured by Corning Inc.) and cultured overnight in a DMEM medium containing 10% FBS at 37° C. under 5% CO₂ conditions. […] On the next day, the expression vector-transfected cells were treated with TrypLE Express (manufactured by Life Technologies Corp.), washed with PBS containing 5% FBS, and then suspended in PBS containing 5% FBS. The obtained cell suspension was used in flow cytometry analysis.
Each cell suspension prepared in 4)-5-1 was centrifuged, and the supernatant was removed. Then, MAb1, a positive control Monoclonal ANTI-FLAG M2 antibody produced in mouse, or a negative control Mouse IgG2a was added at a concentration of 10 μg/mL to 2×10⁵ expression vector-transfected cells, and the resulting suspension was left standing at 4° C. for 1 hour. The cells were washed once with PBS containing 5% FBS. Then, Anti-Mouse IgG FITC conjugate diluted 1000-fold with PBS containing 5% FBS was added thereto, and the resulting suspension was left standing at 4° C. for 1 hour. […] Data was analyzed using Flowjo. The histogram of FITC fluorescence intensity was prepared. The antibody was determined to bind to a cell when the histogram of MAb1 was shifted to a stronger fluorescence intensity region compared with the histogram of the negative control Mouse IgG2a. […]
(In general: Flow cytometry measures light scatter and fluorescence of single cells or particles in a stream.)

The target of assay [2] is T2, N-terminal FLAG-tagged cynomolgus monkey ROBO4, cynoROBO4-2 (pCI-FLAG-cynoROBO4-2) (cynomolgus monkey, UniProt Q8WZ75 28-1007 (human entry)).
T2 chain: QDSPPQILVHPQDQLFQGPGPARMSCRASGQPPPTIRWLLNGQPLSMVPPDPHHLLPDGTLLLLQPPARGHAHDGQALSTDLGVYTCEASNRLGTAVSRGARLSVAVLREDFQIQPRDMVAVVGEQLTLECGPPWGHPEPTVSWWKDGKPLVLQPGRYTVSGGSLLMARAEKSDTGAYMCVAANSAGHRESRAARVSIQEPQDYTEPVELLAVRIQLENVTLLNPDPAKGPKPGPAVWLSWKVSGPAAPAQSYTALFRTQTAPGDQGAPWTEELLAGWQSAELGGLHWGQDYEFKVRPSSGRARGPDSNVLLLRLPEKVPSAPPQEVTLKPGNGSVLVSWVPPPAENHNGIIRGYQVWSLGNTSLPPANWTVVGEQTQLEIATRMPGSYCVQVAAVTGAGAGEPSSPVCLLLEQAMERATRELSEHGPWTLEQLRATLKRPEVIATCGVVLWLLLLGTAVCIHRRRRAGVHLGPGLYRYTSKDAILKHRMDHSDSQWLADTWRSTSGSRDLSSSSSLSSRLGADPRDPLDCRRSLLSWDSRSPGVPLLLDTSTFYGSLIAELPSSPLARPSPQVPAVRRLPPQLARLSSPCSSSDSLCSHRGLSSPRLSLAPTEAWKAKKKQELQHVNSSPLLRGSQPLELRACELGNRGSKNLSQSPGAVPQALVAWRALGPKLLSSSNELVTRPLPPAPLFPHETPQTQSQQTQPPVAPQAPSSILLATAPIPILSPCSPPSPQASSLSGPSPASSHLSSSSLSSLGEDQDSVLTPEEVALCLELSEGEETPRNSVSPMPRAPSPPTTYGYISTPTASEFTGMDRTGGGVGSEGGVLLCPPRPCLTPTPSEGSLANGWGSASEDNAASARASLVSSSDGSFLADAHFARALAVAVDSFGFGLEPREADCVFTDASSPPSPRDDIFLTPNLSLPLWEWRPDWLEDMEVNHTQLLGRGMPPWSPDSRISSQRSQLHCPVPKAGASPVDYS
Kind of assay: flow cytometry (FC500), HEK293 cells transfected with pCI-FLAG-cynoROBO4-2, antibody at 10 µg/mL, FITC goat anti-human IgG Fc; control histogram IgG (human IgG).

B1: anti-ROBO4 mouse monoclonal antibody MAb1 (antibody, mouse IgG1, V domains shown)
VH: EVQLVESGGGLVKPGGSLKLSCAASGFTFSTYAMSWVRQTPEKRLEWVATISNGGTYTYYPDSVKGRFTISRDNAENTLYLQMSSLRSEDTAMYFCARLIYYDYLDYWGHGTTLTVSS
VL: DAVMTQTPLSLPVSLGDQASISCRSSQSLENSNGNTYLNWYFQKPGQSPQLLIYRVSNRFSGVLDRFSGSGSGTDFTLKISRVEAEDFGVYFCLQVTHVPWTFGGGTKLEIKR
notes: Mouse IgG1 (gamma1), kappa light chain, purified from hybridoma supernatant; also called parent antibody MAb1
Regarding B1, the binding result in assay [1] is “no binding (tested: 10 µg/mL)”.

B2: humanized MAb1 antibody H-1143 (antibody, human IgG2, kappa, V domains shown)
VH: EVQLVESGGGLVQPGGSLRLSCAASGFTFSTYAMSWVRQAPGKGLEWVATISQGGTYTYYPDSVKGRFTISRDNAKNTLYLQMNSLRAEDTAVYYCARLIYYDYLDYWGQGTLVTVSS
VL: DIVMTQSPLSLPVTLGEPASISCRSSQSLENENKNLYLNWYLQKPGQSPQLLIYRVSNRFSGVPDRFSGSGSGTDFTLKISRVEAEDVGVYYCLQVTHVPWTFGPGTKVDIKR
notes: Human IgG2 / kappa constant regions; also called hMAb1-H2-type heavy chain + hMAb1-L2-type light chain
Take B2: the binding result in assay [2] is “binds”.
